Test results: the DeepSol protein solubility set

Assay: soluble on expression in E. coli; label from the status in PepcDB or PDB records

Soluble on expression in E. coli, not soluble:
MGSDKIHHHHHHMSSSAKPLPTIERPREDASGRARVPGWVIGIDLGGTKILAGIARTQEQIIATREEPTLHGEDAPVLAQMARLITSLLSDAGALAQELDNVVIGVPSAVDPQTGLSSLSPNLALPVDRPLADLMSRFVSCPVTVENDVNLAAYGEAWAGAGQGLGSLVFVSFGTGVGMGIVLDGEPWRGAAGRAGEIAYLPVGAAPHETAPLSENGLYEDGVGTSGIRQRFTRDGGTVAELFSLARSGNEQARLAIDSVAKQASIGIAAVHALLDPAVTVIGGGIGSQPEFFTLLQAHLQPLLPFESPLKQSRLGVQAGMIGAVALALKNRVPHPEKSNAENL
SQGRKPSSKLISFQRKLANETEIQKLNLSQSDYVVRMERVRYADKVPLVYEVASIPENLIKGFEQSEVTEHFFKTLTENGYEIGKSQQTIYARNASERVASHLEVNAGHAILALTQVSYFTDGKPFEYVHGQYVGDRFE
MRILFVGPPLYGLLYPVLSLAQAFRVNGHEVLIASGGKFAQKAAEAGLVVFDAAPGFDSEAGYRRQEALRKENNIGTKMGNFSFFSEEMTDPLVAFAGQWRPDLIVYPPLGVVGPLIAAKYDIPVVMQTVGFGHTPWHIKGVTKSLSNAYRRHGVSAPPRDLAWIDVTPPSMSILQNDGEPVISMQYVPYNGGAVWEEWWERTPDRKRLLVSLGTVKPMVDGLDLISWVMDSAGEVDAEIILHLPANARSDLRSLPPNVRLVDWLPMGVFLNGADGFIHHGGAGNTLTALHAGIPQIVFGQGADRPVNARAVVERGCGIIPGKSGLTSSMINTFLGNRALREASQEVAAEMAAQPCPTEVAKKLIAMLQHGLEHHHHHH
MRLCHSIILFNSLISISICSKADDPALLVASEFKEHFNVEEKQLETVEELLIKMKKLAHSRSFKGREFGHDAVEDSKKEVAISTQQGTINKKVSPFLFEGDIFLSRRQAVDILKALSKDKTKRLRRSFVSDKTATWKTMPIKYRFHESIDFYTISQIIAAIRFWEDSTCITFENVSDSPDGDYIEFFSGQGCYSMIGRNGGRQGISIGESCVKASFFVMGVIEHEIGHALGLWHEQSRPDALGYVTIERDFILPSYISDFLQRDDEIDTLGIPYDLGSVMHYGSTAFSVDQKSKTVVTRDSLYQQTIGQREKLSFYDVATINTAYCKDECKSEKTKCENGGYMRPSKCSECLCPDGLGGEKCEKNEDSKNAECGGIIKLTEEWKEIESPNYPDPGYEADQKCSWLLKAEKGKRVEIEFIEDFSFLCTSTCVDFVELKISDDLRNTGFRFCCYDKPEISFVSQTDTAIIIFRSQLSTDIGFKIQAKSNELIIKTFKNSQKTKMQILFPKLSLKNNSADAEPRTTIAPTIITTTLAPITVDAPNVWADWGEWSMCSRTCGGCGIRSRVRSCRSKKCEGRRQEFGTCNLKACPVDKHCAKLLSNNRLCNGKVCTKNDIAISSCDAPQCCPPFINVDGVCQSDQENQHDELWLSI
MGSDKIHHHHHHMTANPTVFTFADSTDLILEIPDSTTANLDSQLFSHPYSRYQAYLNELCLSAVLPWLQEDFSTQAKVWPSATTLASLWELVNGTAVTIDGKRFILVPSENIDHSELRVQQEWVDLPTWAGDYYLAVQVDGEYVKVWGYCTHTQLKHQGKYDPGDRTYSLDITDIVNDISVLAVARDLCPDEITRTAIAPLPTIPQEQAQNLITRLSNPEIINPRLAIPFQLWGALIEHGGWRQSLYERRLGLPEQRSVLQWLQSGVSQVAQTMGWGRLNLQLSAAGARSVEERQTGVTLSRRLTIAGQLYELLITPQGEPDAPYWRFELRNAAVGAVIPGGFKLRLLTEDLQSFPNNEDIATNAVEQLYVEVALEAGEGIVWEIEPLPENYDREILKF
MGEVFKMDGLASTILEVHKPAKLEDIPDEDPIAIILALKWLEYLCERAGVENVSDILDFYYMLGWLGDKALAKLLKFLKGIKVDEENVVEGSGKLNITDHIISLLFIERLNGKKISAELLDKIEWELRKIKKGAEQFYGI
